The target in test [1] is HLA-A*80:01. As to the kind of experiment: IEDB peptide-MHC binding, purified MHC/direct/fluorescence; filed as Kd, often an IC50 or EC50 that approximates it; ≥ and ≤ were set here for values at or beyond the usual limits of such assays.
The target in test [2] is HLA-A*26:02. The test is described as above. To be noted: source organism: Yellow fever virus.
The target in test [3] is HLA-B*18:01. The test can be described thus: IEDB peptide-MHC binding, purified MHC/competitive/fluorescence; filed as Kd, often an IC50 or EC50 that approximates it; ≥ and ≤ were set here for values at or beyond the usual limits of such assays. As to conditions: source organism: Mycobacterium tuberculosis variant bovis BCG str. Pasteur 1173P2.
The target of test [4] is HLA-B*15:01. The description is as above. As to conditions: source organism: Mycobacterium tuberculosis variant bovis BCG str. Pasteur 1173P2.
Test [5] has as its target HLA-A*26:02. The test is described as above.
Test [6] addresses HLA-A*26:03. Described as above. As to conditions: source organism: Mycobacterium tuberculosis variant bovis BCG str. Pasteur 1173P2.
In test [7] the target is HLA-A*02:06. The description is as above. As to conditions: source organism: Mycobacterium tuberculosis variant bovis BCG str. Pasteur 1173P2.
Test [8] addresses HLA-A*69:01. As to the kind of experiment: IEDB peptide-MHC binding, purified MHC/direct/fluorescence; filed as Kd, often an IC50 or EC50 that approximates it; ≥ and ≤ were set here for values at or beyond the usual limits of such assays.
Test [9] addresses HLA-B*48:01. Described as above.
Test [10] has as its target HLA-A*31:01. The description is as above.
The target of test [11] is HLA-A*02:01. The description is as above. As to conditions: source organism: Mycobacterium tuberculosis.
In test [12] the target is HLA-B*08:03. The description is as above. To be noted: source organism: Mycobacterium tuberculosis str. Haarlem.
The target of test [13] is HLA-B*15:17. Described as above. As to conditions: source organism: Mycobacterium tuberculosis.
The target in test [14] is HLA-B*58:01. The test is described as above.
Test [15] deals with HLA-A*11:01. The description is as above.
Test [16] addresses HLA-B*40:01. The description is as above. As to conditions: source organism: Mycobacterium tuberculosis.
Test [17] has as its target HLA-B*08:02. The test is described as above.
Test [18] addresses HLA-A*68:02. Described as above.
The target of test [19] is HLA-A*01:01. The test is described as above.
Test [20] deals with HLA-B*27:05. Described as above. As to conditions: source organism: Mycobacterium tuberculosis.
Test [21] deals with HLA-B*07:02. Described as above.
For test [22], the target named is HLA-B*08:01. The description is as above.
Test [23] has as its target HLA-B*57:01. The description is as above.
The target of test [24] is HLA-B*46:01. The description is as above.
Test [25] concerns the target HLA-B*14:02. The description is as above. As to conditions: source organism: Homo sapiens.
Test [26] has as its target HLA-B*15:03. The test can be described thus: IEDB peptide-MHC binding, purified MHC/competitive/radioactivity; filed as Kd, often an IC50 or EC50 that approximates it; ≥ and ≤ were set here for values at or beyond the usual limits of such assays. To be noted: source organism: Vaccinia virus WR.
The target in test [27] is HLA-A*02:01. The test can be described thus: IEDB peptide-MHC binding, purified MHC/competitive/fluorescence; filed as Kd, often an IC50 or EC50 that approximates it; ≥ and ≤ were set here for values at or beyond the usual limits of such assays. To be noted: source organism: Variola virus.
Test [28] has as its target HLA-B*15:17. Described as above. To be noted: source organism: Variola virus.
Test [29] deals with HLA-A*26:01. The description is as above. As to conditions: source organism: Variola virus.
Test [30] concerns the target HLA-B*27:05. Described as above. As to conditions: source organism: Variola virus.
The target of test [31] is HLA-B*39:01. The test is described as above.
Test [32] deals with HLA-B*15:09. Described as above.
Test [33] deals with HLA-B*15:01. As to the kind of experiment: IEDB peptide-MHC binding, purified MHC/direct/fluorescence; filed as Kd, often an IC50 or EC50 that approximates it; ≥ and ≤ were set here for values at or beyond the usual limits of such assays.
In test [34] the target is HLA-C*07:02. The description is as above. To be noted: source organism: Variola virus.
Test [35] deals with HLA-B*18:01. The description is as above. To be noted: source organism: Mycobacterium tuberculosis.
Test [36] deals with HLA-A*03:01. The description is as above. As to conditions: source organism: Mycobacterium tuberculosis.
The target in test [37] is HLA-A*26:01. Described as above. As to conditions: source organism: Mycobacterium tuberculosis str. Haarlem.
Test [38] deals with HLA-B*51:01. The test is described as above. To be noted: source organism: Mycobacterium tuberculosis.
Setting [39] is: source organism: Mycobacterium tuberculosis.
Setting [40] is: source organism: Mycobacterium tuberculosis str. Haarlem.
The mark [41] stands for this setting: source organism: Camelpox virus CMS.
Setting [42] is: source organism: Camelpox virus M-96.
Setting [43] is: source organism: Mycobacterium tuberculosis C.

For orientation: Kd means a measure of binding affinity in units of concentration. As for EVDQTKIQY, the Kd was at least 20 µM in test [1] (source organism: Yellow fever virus) and 1.61 µM in [2].
With KVMVICYAY, the Kd was 3.29 µM in test [3]; at least 20 µM in test [4]; at least 20 µM in test [5] (source organism: Mycobacterium tuberculosis variant bovis BCG str. Pasteur 1173P2); at least 20 µM in test [6]; at least 20 µM in test [7]; at least 20 µM in test [8] (setting [39]). Further, the Kd is at least 20 µM in [9] (setting [39]); 4.16 µM in test [10] (setting [39]); at least 20 µM in [11]; at least 20 µM in [12]; 6.9 µM in [13]; 0.705 µM in test [14] (setting [39]). Also, the Kd in test [15] (setting [39]) was 0.492 µM; in [16], at least 20 µM; in test [17] (setting [40]), at least 20 µM; in test [18] (setting [39]), at least 20 µM; in test [19] (setting [39]), 11.8 µM; in test [20], at least 20 µM. The Kd in [21] (setting [39]), in test [22] (setting [40]), in test [23] (setting [39]) and in test [24] (setting [39]) was at least 20 µM throughout.
In the case of ITDFNIDTY, the Kd in test [1] (setting [41]) was 0.307 µM; in test [19] (setting [41]) it was at most 0.001 µM.
In test [25], LQRIHAEI showed a Kd of 0.133 µM.
As for SQIETGTPF, the dissociation constant (Kd) in test [26] was 0.00133 µM; in test [27], at least 20 µM; in [28], at least 20 µM; in test [29], 1.79 µM; in test [5] (source organism: Variola virus), 0.0008 µM; in test [30] it was at least 20 µM. Further, the dissociation constant (Kd) in test [31] (source organism: Variola virus) was 0.0146 µM; in test [32] (source organism: Variola virus), 0.0673 µM; in test [8] (setting [42]), at least 20 µM; in test [9] (setting [42]), 1.65 µM; in test [10] (setting [42]) it was at least 20 µM; in test [33] (setting [42]), 0.014 µM. Also, the dissociation constant Kd in [14] (setting [42]), in test [15] (setting [42]), in [17] (source organism: Variola virus), in test [18] (setting [42]), in [19] (setting [42]) and in test [21] (setting [42]) was at least 20 µM in each case. Besides, the Kd is at least 20 µM in test [34], at least 20 µM in [22] (source organism: Variola virus), at least 20 µM in test [23] (setting [42]) and 3.06 µM in [24] (setting [42]).
In the case of RPAPATGAL, the Kd in test [31] (setting [43]) is 0.0042 µM; in [32] (setting [43]), 0.0786 µM; in test [8] (setting [39]), 0.739 µM; in test [9] (setting [39]), at least 20 µM; in test [10] (setting [39]) it was at least 20 µM; in test [11] it was at least 20 µM. Besides, the equilibrium dissociation constant (Kd) in test [35], in [13], in test [36], in test [33] (setting [39]), in test [14] (setting [39]) and in [15] (setting [39]) was at least 20 µM each time. Also, the Kd in test [37], in test [16], in test [38], in [17] (setting [40]), in [19] (setting [39]) and in test [20] was at least 20 µM throughout. Besides, the Kd in test [22] (setting [40]), in test [23] (setting [39]) and in test [24] (setting [39]) was at least 20 µM throughout.

Values taken from the Immune Epitope Database (IEDB).
